Assay results reported in a protein production outcome set (Wang et al. 2014).

Assay: label from the status in PepcDB records

For “MFKLVFKQYKCKSTSPDLTEVVKIDDCVVKGNDQEKSDNNIVQRLSISNVESLQTMPGVKSPKDWRTYTLTNHPGIIVIRNPFSERGRRYWSARCLRDFPRTPNIVNLNERLFDESVRSDWWKQLNLCSDGVEFQRIKSAMRWTTFGYHHNWDTKIYDEEMQSPFPEDLSSLCGLFAQALGYADFKPEAAIVNYYPVGSTLSGHTDHSEPNKSAPLFSFSFGQTAIFLIGGRSLEEKPTAIYLQSGDVMIMSGESRLCYHAVPRIIKTQASATLSLIIEDVDNADIKTRTIDKDLFHDVGNPQFWEPFSRYMDDSRININIRQVLNPGDVKL”, the protein production was “failed”.
For “MEGESVKLSSQTLIQAGDDEKNQRTITVNPAHMGKAFKVMNELRSKQLLCDVMIVAEDVEIEAHRVVLAACSPYFCAMFTGDMSESKAKKIEIKDVDGQTLSKLIDYIYTAEIEVTEENVQVLLPAASLLQLMDVRQNCCDFLQSQLHPTNCLGIRAFADVHTCTDLLQQANAYAEQHFPEVMLGEEFLSLSLDQVCSLISSDKLTVSSEEKVFEAVISWINYEKETRLEHMAKLMEHVRLPLLPRDYLVQTVEEEALIKNNNTCKDFLIEAMKYHLLPLDQRLLIKNPRTKPRTPVSLPK”, the protein production was “not failed”.
In the case of “MGFTTDKIRTIAVAGHGQSGKTSLVEHLLYVSGLIAKAESVDSGKTVTDYSQEEIDRKISIYSTLVNLQKDDKLINIWDTPGASDFIGEVIAAFRSSEAALIVLDGRSGVQIETIKYWRDLDRRNKPRLVFANKMDEARADFDNCIADVKKQFQVDVFPVSFPMGTGDNFKGVVDVLHGKAYKIEDGKEVETEIPAEYQDKYKDALEVLAGAAAEGDEELLVKFIDEGELSPEEISRGLTLAMADNRIVPLFAGSAINNSGLNSLLRFISEILPSPEGALERGVTKEGEEISVKLDSSAPLSAIVVKTSNDQFSGRLSYVKVITGTLSADSEVYNLREEKKERVGKIYKTLGKKLTEVKEIAAGDIGVLVKLTSTKTNDTLAASADVIPFVRLRTPEPIYSLAVSAIDKKNDDKVSEQLFKACEEDMTLSFAFNAETKQNVLSGMGDLHTSIVLDKVKNQSKIEIQTSIPRIAYRETIQRKSQAEYTHKKQSGGHGQFGRVVLAIEPLPRGEKYKFTNAVFGGAISKGYIPGVEKGVIEAMEKGVSAGYPVVDVAVTVLDGKEHPVDSSEMAFKIAARNAFKDAMRNAGPILLEPIMNLTVFVETSYLGDIMSDLSSRRGRILGQSSPASGIEEIRAQVPHKELLRYAIDLRSMTSGTGSFEMSFDHYDPISGKIADEIIAEAKAFMEEQEE”, the protein production was “failed”.
In the case of “MQLIGDTPITYRRYSMSSSQNALVLIARILLSFIFIYSGFGKLTDPAGTAGMIAGAGMPAATALAYLAGLFELVAGLAILAGFQTKIAAWALAVFCVFTGLVFHSGTVAVPGWPEPALGWINTLNGIMMMKNITLAGAYILLATFGAGAYSVDAKRGFVAARA”, the protein production was “failed”.
For “HFPARVKVEPAVDTSRIKVFGPGIEGKDVFREATTDFTVDSRPLTQVGGDHIKAHIANPSGASTECFVTDNADGTYQVEYTPFEKGLHVVEVTYDDVPIPNSPFKVAVTEGCQPS”, the protein production was “not failed”.
In the case of “MEIKPGLSALVTGGASGIGRALCLALAEKGVFVTVADFSEEKGQETTSLVREANAKFHQGLSFPSAIFVKCDVTNRGDLLAAFDKHLATFGTLDICINNAGISTPLRFDKDDTDGSKSWKHTINVDLIAVVEGTQLAIKAMKAKQKPGVIINMGSAAGLYPMPVDPIYAASKAGVVLFTRSLAYYRRQGIRINVLCPEFIKTDLAEAIDASILESIGGYMSMDMLIKGAFELITDEKKAGACLWITKRRGLEYWPTPMEETKYLVGSSSRKRPSFKVSTKIEFPQSFEKMIVHTLSHKFRSATRIVRAPLQLPIGPHQVLLKIIYAGVNASDVNFSSGRYFTGGSPKLPFDAGFEGVGLIAAVGESVKNLEVGTPAAVMTFGAYSEYMIVSSKHVLPVPRPDPEVVAMLTSGLTALIALEKAGQMKSGETVLVTAAAGGTGQFAVQLAKLSGNKVIATCGGSEKAKLLKELGVDRVIDYKSENIKTVLKKEFPKGVNIIYESVGGQMFDMCLNALAVYGRLIVIGMISQYQGEKGWEPAKYPGLCEKILAKSQTVAGFFLVQYSQLWKQNLDKLFNLYALGKLKVGIDQKKFIGLNAVADAVEYLHSGKSTGKVVVCIDPAFEQKTSRL”, the protein production was “failed”.
With “MARYRGAVERLERRFGVSLALKGERRLSGKSALDKRAYGPGQHGQRRAKTSDYGLQLKEKQKAKMMYGISEKQFRSIFVEANRLDGNTGENLIRLIERRLDNVVYRMGFATTRSSARQLVTHGHVLVDGKRLDIPSYFVRSGQKIEIKEKTKSNSQVVRAMELTAQTGIVPWIDVEKDKKYGIFTRYPEREEVVVPIEERLIVELYSK” the protein production was “failed”.
